Target: HLA-DR DRB1*0701 on fixed MOU (MANN) cells (human)
Test: competition

Substance “Tetanus toxin 828-840 (from UniProt P04958 828-840)” has an IC50 of 7 µM.

— US20060062761A1
